According to the supplement of paper PMC10724198:
± gives the standard deviation of the averaged measurements.

Experiments:
[1] = test system: Saccharomyces cerevisiae; assay: protein stability index of tFT-peptide fusion (C-terminal peptide) (PSI (0-1 scale)); higher = more stable (slower turnover)
Description: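 MPS profiling in S. cerevisiae of the tFT-X12 degron library: putative degron peptides plus stable controls, 12 aa, fused to the C-terminus of a sfGFP-mCherry timer. Cells are FACS-sorted into 8 mCherry/sfGFP bins and deep-sequenced. PSI runs from 0 (unstable) to 1 (stable). Backgrounds are wild type, das1Δ and doa10Δ at 30 °C, and wild type, das1Δ, cdc34-1 and cdc53-1 at 37 °C; 2-3 technical replicates each.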

[2] = test system: Saccharomyces cerevisiae; assay: as above; settings: genetic background: wild type; temperature: 30 C
[3] = genetic background: cdc34-1, temperature: 37 C
[4] = genetic background: cdc53-1, temperature: 37 C
[5] = genetic background: das1 deletion, temperature: 30 C
[6] = genetic background: das1 deletion, temperature: 37 C
[7] = genetic background: doa10 deletion, temperature: 30 C
[8] = genetic background: wild type, temperature: 30 C
[9] = genetic background: wild type, temperature: 37 C
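Note: PSI is a weighted mean of sequencing reads over stability bins, variants kept only with over 10 reads, mCherry proximal and sfGFP distal, peptide attached via GGGS linker.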

Sequence | protein stability index [1, 3] | protein stability index [1, 4] | protein stability index [1, 5] | protein stability index [1, 6] | protein stability index [1, 7] | protein stability index [1, 8] | protein stability index [1, 9] | protein stability index [2]
VLVWLRLRVGLR | 0.212 ± 0.025 | 0.322 ± 0.016 | 0.218 ± 0.045 | 0.381 ± 0.0098 | 0.199 ± 0.0058 | 0.213 ± 0.021 | 0.3468 ± 0.0019 | 0.3002 ± 0.00052
VLYCRSCFLRVS | 0.543 ± 0.021 | 0.584 ± 0.015 | 0.436 ± 0.024 | 0.6292 ± 0.0028 | 0.1667 ± 0.0015 | 0.161 ± 0.0061 | 0.362 ± 0.023 | 0.281 ± 0.021
VMIFYVLGRVWD | 0.428 ± 0.0048 | 0.5209 ± 0.0028 | 0.293 ± 0.056 | 0.594 ± 0.025 | 0.27 ± 0.0079 | 0.314 ± 0.033 | 0.581 ± 0.082 | 0.455 ± 0.0091
VNFVLTLYPYLV | 0.512 ± 0.024 | 0.577 ± 0.019 | 0.507 ± 0.024 | 0.603 ± 0.02 | 0.275 ± 0.016 | 0.278 ± 0.02 | 0.4472 ± 0.00073 | 0.378 ± 0.014
VPPLPPPGPPTF | 0.705 ± 0.0084 | 0.7583 ± 0.0011 | 0.667 ± 0.012 | 0.733 ± 0.014 | 0.683 ± 0.029 | 0.6765 ± 0.0056 | 0.708 ± 0.011 | 0.699 ± 0.015
VQLLTRLKTPHP | 0.6608 ± 0.0013 | 0.7443 ± 0.0035 | 0.656 ± 0.016 | 0.719 ± 0.015 | 0.636 ± 0.021 | 0.65 ± 0.024 | 0.716 ± 0.021 | 0.733 ± 0.026
VRDQGWILNMLL | 0.7266 ± 0.007 | 0.771 ± 0.024 | 0.651 ± 0.032 | 0.7546 ± 0.0011 | 0.3707 ± 0.0019 | 0.422 ± 0.028 | 0.639 ± 0.023 | 0.485 ± 0.016
VRICVVLRVCWW | 0.0855 ± 0.0017 | 0.139 ± 0.00094 | 0.115 ± 0.034 | 0.217 ± 0.0071 | 0.117 ± 0.034 | 0.12 ± 0.024 | 0.18 ± 0.0089 | 0.256 ± 0.092
VRINLLFVWFSR | 0.407 ± 0.0067 | 0.472 ± 0.028 | 0.331 ± 0.044 | 0.491 ± 0.012 | 0.359 ± 0.016 | 0.334 ± 0.04 | 0.464 ± 0.033 | 0.396 ± 0.026
VRLSQVNRLICT | 0.554 ± 0.022 | 0.566 ± 0.065 | 0.437 ± 0.024 | 0.585 ± 0.021 | 0.394 ± 0.019 | 0.426 ± 0.0098 | 0.573 ± 0.017 | 0.524 ± 0.052
VRRGAVWCCLCG | 0.666 ± 0.0079 | 0.73 ± 0.0094 | 0.623 ± 0.012 | 0.748 ± 0.004 | 0.368 ± 0.017 | 0.405 ± 0.014 | 0.633 ± 0.0059 | 0.474 ± 0.011
VRVLAALVLCVV | 0.159 ± 0.029 | 0.306 ± 0.021 | 0.217 ± 0.019 | 0.3799 ± 0.00079 | 0.156 ± 0.0081 | 0.189 ± 0.011 | 0.322 ± 0.011 | 0.312 ± 0.0089
VRYCFFWVRAVV | 0.286 ± 0.027 | 0.335 ± 0.019 | 0.233 ± 0.04 | 0.4555 ± 0.0013 | 0.173 ± 0.0088 | 0.194 ± 0.022 | 0.3718 ± 0.0019 | 0.278 ± 0.051
VTGYLSTLTMLC | 0.6 ± 0.015 | 0.654 ± 0.0097 | 0.551 ± 0.02 | 0.671 ± 0.023 | 0.231 ± 0.0097 | 0.247 ± 0.03 | 0.5014 ± 0.0011 | 0.3832 ± 0.0015
VTWNFIVYVCCF | 0.164 ± 0.0058 | 0.204 ± 0.0029 | 0.209 ± 0.016 | 0.25776 ± 1.6e-05 | 0.189 ± 0.017 | 0.19 ± 0.014 | 0.219 ± 0.0045 | 0.283 ± 0.011
VVFLWRCRLLLG | 0.276 ± 0.015 | 0.346 ± 0.015 | 0.213 ± 0.034 | 0.416 ± 0.0042 | 0.0938 ± 0.011 | 0.115 ± 0.027 | 0.154 ± 0.0056 | 0.164 ± 0.019
VVFRCSSFFCLV | 0.54 ± 0.0062 | 0.6156 ± 0.006 | 0.524 ± 0.029 | 0.622 ± 0.015 | 0.387 ± 0.033 | 0.405 ± 0.035 | 0.536 ± 0.0083 | 0.4449 ± 0.002
VVIYWFLPIIFA | 0.09487 ± 0.00071 | 0.0751 ± 0.015 | 0.163 ± 0.032 | 0.253 ± 0.018 | 0.266 ± 0.006 | 0.155 ± 0.021 | 0.224 ± 0.013 | 0.23 ± 0.029
VVLGLFCVRMGT | 0.541 ± 0.018 | 0.606 ± 0.019 | 0.454 ± 0.031 | 0.6108 ± 0.0044 | 0.418 ± 0.01 | 0.451 ± 0.02 | 0.5718 ± 0.0034 | 0.522 ± 0.031
VVLVGVAVCRLG | 0.4 ± 0.0065 | 0.47 ± 0.013 | 0.29 ± 0.025 | 0.4888 ± 0.0021 | 0.244 ± 0.01 | 0.277 ± 0.014 | 0.46 ± 0.0018 | 0.368 ± 0.011

Sequence | protein stability index [1, 3] | protein stability index [1, 4] | protein stability index [1, 5] | protein stability index [1, 6] | protein stability index [1, 7] | protein stability index [1, 8] | protein stability index [1, 9] | protein stability index [2]
VVNFLVFRFFCI | 0.53 ± 0.046 | 0.531 ± 0.015 | 0.481 ± 0.029 | 0.649 ± 0.026 | 0.216 ± 0.016 | 0.217 ± 0.037 | 0.39 ± 0.018 | 0.285 ± 0.06
VVPYPFLTLLNI | 0.417 ± 0.026 | 0.407 ± 0.029 | 0.403 ± 0.041 | 0.539 ± 0.014 | 0.589 ± 0.033 | 0.381 ± 0.012 | 0.492 ± 0.0084 | 0.58 ± 0.12
VVRVSFSFCLSC | 0.476 ± 0.023 | 0.498 ± 0.045 | 0.48 ± 0.029 | 0.459 ± 0.021 | 0.408 ± 0.026 | 0.388 ± 0.029 | 0.425 ± 0.024 | 0.373 ± 0.015
VVSVVVLVNSRG | 0.465 ± 0.029 | 0.501 ± 0.067 | 0.36 ± 0.023 | 0.5405 ± 0.0032 | 0.3414 ± 0.0024 | 0.373 ± 0.024 | 0.518 ± 0.0064 | 0.441 ± 0.017
VVVLLLVVWFCL | 0.29 ± 0.014 | 0.4134 ± 0.0018 | 0.316 ± 0.027 | 0.428 ± 0.027 | 0.283 ± 0.0079 | 0.296 ± 0.025 | 0.391 ± 0.019 | 0.379 ± 0.04
VVVWLFRIKSNV | 0.46 ± 0.012 | 0.586 ± 0.0096 | 0.358 ± 0.059 | 0.576 ± 0.005 | 0.279 ± 0.0084 | 0.318 ± 0.022 | 0.497 ± 0.026 | 0.425 ± 0.025
VWGLWRLCVWGV | 0.3896 ± 0.0011 | 0.479 ± 0.0054 | 0.327 ± 0.036 | 0.5012 ± 0.0017 | 0.274 ± 0.0082 | 0.302 ± 0.025 | 0.477 ± 0.0086 | 0.371 ± 0.057
VWLFSWSVVGGT | 0.436 ± 0.037 | 0.5425 ± 0.0026 | 0.369 ± 0.017 | 0.523 ± 0.012 | 0.369 ± 0.014 | 0.376 ± 0.0048 | 0.5069 ± 0.00074 | 0.433 ± 0.02
VWSVSVTIVGRR | 0.5289 ± 0.0013 | 0.573 ± 0.035 | 0.423 ± 0.037 | 0.528 ± 0.017 | 0.439 ± 0.032 | 0.455 ± 0.0093 | 0.507 ± 0.0052 | 0.458 ± 0.011
VYFASCVVLLMV | 0.159 ± 0.028 | 0.188 ± 0.025 | 0.194 ± 0.029 | 0.3194 ± 0.0019 | 0.159 ± 0.0018 | 0.174 ± 0.017 | 0.251 ± 0.015 | 0.264 ± 0.029
VYLVVLYLRYFA | 0.205 ± 0.031 | 0.22 ± 0.011 | 0.192 ± 0.038 | 0.359 ± 0.023 | 0.173 ± 0.0089 | 0.174 ± 0.016 | 0.306 ± 0.023 | 0.227 ± 0.037
VYVYTIRVRWSE | 0.135 ± 0.024 | 0.274 ± 0.039 | 0.197 ± 0.013 | 0.289 ± 0.023 | 0.164 ± 0.021 | 0.184 ± 0.027 | 0.269 ± 0.03 | 0.277 ± 0.015
WAFVVCGAVFFW | 0.264 ± 0.025 | 0.358 ± 0.031 | 0.299 ± 0.014 | 0.466 ± 0.005 | 0.289 ± 0.024 | 0.282 ± 0.036 | 0.412 ± 0.022 | 0.358 ± 0.019
WCLLGVPVRVVV | 0.373 ± 0.014 | 0.391 ± 0.056 | 0.307 ± 0.042 | 0.462 ± 0.0047 | 0.253 ± 0.0041 | 0.288 ± 0.042 | 0.441 ± 0.0045 | 0.425 ± 0.033
WCVCVSMRMIAI | 0.15 ± 0.015 | 0.193 ± 0.008 | 0.201 ± 0.011 | 0.175 ± 0.013 | 0.202 ± 0.0073 | 0.187 ± 0.002 | 0.159 ± 0.013 | 0.165 ± 0.0094
WFIFATFLILVT | 0.0797 ± 0.0056 | 0.112 ± 0.0058 | 0.136 ± 0.032 | 0.2121 ± 0.001 | 0.154 ± 0.014 | 0.121 ± 0.0082 | 0.182 ± 0.012 | 0.193 ± 0.051
WFLVLLFFWFLL | 0.524 ± 0.0097 | 0.628 ± 0.055 | 0.541 ± 0.0066 | 0.618 ± 0.028 | 0.55 ± 0.036 | 0.533 ± 0.022 | 0.566 ± 0.0068 | 0.48 ± 0.073
WFYLLFVLFGLV | 0.56 ± 0.026 | 0.614 ± 0.012 | 0.438 ± 0.033 | 0.542 ± 0.0065 | 0.409 ± 0.027 | 0.417 ± 0.017 | 0.51 ± 0.024 | 0.426 ± 0.023
WHFPCPPLPCPV | 0.4132 ± 0.0036 | 0.42896 ± 0.0003 | 0.325 ± 0.031 | 0.484 ± 0.0032 | 0.298 ± 0.0082 | 0.347 ± 0.035 | 0.4714 ± 0.0025 | 0.4846 ± 0.0013
